Results taken from paper doi:10.1101/848226.

Target: mCherry-CARACB(G15V) (barley (Hordeum vulgare))
Assay: FRET or BRET

GFP lifetime: 2.2 ns
Substance: GFP-RIC157 (natural protein)
